One substance from publication doi:10.1101/2022.11.03.515015 can be followed below.

For orientation: stoichiometry N means a count of units in the complex or per binding partner.

Several values for one entry are separate records, joined by “and”; a condition that tells them apart may be missing. Equal entries are not always repeated.

Holding throughout (conditions): remark: other sources report otherwise
Experiment [1] has as its target full-length human UBR5 (construct for single-particle analysis: 10xHis, 3C site, UBR5, double strep tag) (human) (UniProt O95071). The experiment in a line: mass photometry.
Experiment [2] has the same target. The experiment in a line: mass photometry. This is another data set of the same source.
Experiment [3] shares this target. Kind of experiment: cryo-EM structure.

As to “full-length human UBR5 (construct for single-particle analysis: 10xHis, 3C site, UBR5, double strep tag), O95071 1-2799”, the stoichiometry N is 2 in experiment [1]; 4 in experiment [2]; 4 and 2 in experiment [3].
